# Measurements taken from the supplement of paper PMC10126150.
# ± gives the standard deviation of the averaged measurements.
# System: ATP
# Test: switch fluorescence ratio, 500 uM ATP over buffer (Cy3 cluster intensity, sum of 5 cycles each) (fold (ratio)); higher = stronger signal-on switching upon ATP binding; sequences stand for … in TCGTCGGCAGCGTCAGATGTGTATAAGAGACAGTTTTTTTTTTTTTTTTTTTTTTTTT…TC
# Conditions: aptamer strand: ATP DNA aptamer (quencher-CACCTGGGGGAGTATTGCGGAGGAAGG + anchor), 100 nM annealed; ATP concentration: 500 uM
# How it was run: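 Values give the fluorescence ratio for each switch-domain sequence, averaged from per-cluster ratios of summed target-cycle to summed buffer-cycle Cy3 intensity. The Cy3-labelled switching-strand clusters sat on a modified Illumina MiSeq flow-cell, were annealed to 100 nM quencher-labelled ATP aptamer, and were imaged in selection buffer, then after 15 min with 500 uM ATP at 22 °C. Five cycles ran with NaOH stripping and re-annealing between them, and clusters outside 100-1000 RFU were excluded.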
# 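Also: ATP exposure 15 min at 22 °C before imaging.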
row,Sequence,switch fluorescence ratio
1,CTTGGGCATG,0.988 ± 0.019
2,ATCTATGTTT,0.9872 ± 0.0041
3,TGGCTGGGTT,1 ± 0.054
4,TAGTTACCCG,0.979 ± 0.045
5,GGAATCATTT,0.972 ± 0.015
6,CGAGTTTG,0.98 ± 0.056
7,GTGTGGGGGC,1.008 ± 0.0072
8,CCGAGGGGGG,1.25 ± 0.35
9,CGAGTTGATC,0.973 ± 0.028
10,GGGGCAGGTA,1.04 ± 0.047
11,ATTAAGGAGG,0.99014 ± 0.00011
12,GCATCCGGGA,0.956 ± 0.039
13,ATTAAACCGG,0.997 ± 0.024
14,ATATTCGCTC,1.12 ± 0.1
15,TAGTCTGTTC,1.01 ± 0.045
16,GCTTTTGCCG,0.993 ± 0.036
17,GGGTCTCGAG,0.9866 ± 0.0096
18,TATTTGTTGC,1.03 ± 0.041
19,AAAAGTTGGT,1.02 ± 0.083
20,ATGGCATGCT,1.02 ± 0.021
21,TTTACGTCGG,1.02 ± 0.034
22,AAGTTTACGC,0.983 ± 0.025
23,CGATTTCGTT,0.984 ± 0.013

row,Sequence,switch fluorescence ratio
1,AGGCAATTGT,1.026 ± 0.01
2,CGGTGGGTC,1.009 ± 0.0047
3,TCATTCGTCG,0.9712 ± 0.0031
4,GATTCCATAT,1 ± 0.03
5,AGGGGTGCAG,0.995 ± 0.01
6,CAAATGTCAG,0.99 ± 0.028
7,AATGGTTCGG,0.962 ± 0.036
8,TCGTAATGAG,1.019 ± 0.0034
9,AGACCAATTC,1.095 ± 0.0037
10,TCCAAACCAG,1.06 ± 0.012
11,GGTTTTTGCG,1.0217 ± 0.0008
12,TGGCGCCGAT,0.9608 ± 0.0026
13,GGGATCGTTG,0.965 ± 0.017
14,TTTTATGTTC,1.01 ± 0.018
15,CAGGGTTGGC,1.03 ± 0.012
16,ATTATTCGGT,0.986 ± 0.013
17,GGAAAGCGTG,0.993 ± 0.084
18,TTAAAGACCT,1.45 ± 0.042
19,ATAGAGGCTA,0.992 ± 0.025
20,GGGGTGCTTG,0.988 ± 0.026
21,TTCCTAAAAG,0.979 ± 0.011
22,ACCACCAGAA,1.13 ± 0.02
23,GGCCGGGACT,0.987 ± 0.062

row,Sequence,switch fluorescence ratio
1,ATGGTAAGGT,1 ± 0.014
2,CTGTGTTCTT,0.9864 ± 0.0065
3,GGAAGAAAAC,1.008 ± 0.0045
4,ACTATTTTTC,1.016 ± 0.0035
5,ATACTTAAGG,1.016 ± 0.0013
6,TGGTTTGCGC,1.36 ± 0.46
7,GGGGATACGT,1 ± 0.021
8,CGCTTGAGA,1.04 ± 0.026
9,CCTTTCGGCT,1.068 ± 0.0038
10,TTTGGGTAGT,1.04 ± 0.034
11,GGTAACTTGG,1.01 ± 0.034
12,GGGAAGGTTT,1.01 ± 0.012
13,CGATTCGGTA,1.01 ± 0.042
14,TGAGGGATGC,0.968 ± 0.029
15,ATTTGTGGGA,1 ± 0.029
16,GAGTTATTTA,0.982 ± 0.027
17,TCGTGTTCGA,1.001 ± 0.0094
18,ATAGACGGAT,0.987 ± 0.06
19,GCTATAGTCG,1.022 ± 0.0027
20,CATGATGAGC,0.9668 ± 0.0079
21,CGGAAGCGTG,0.984 ± 0.016
22,TCCAGAGGGA,1.28 ± 0.23
23,ATTTTCGTTA,1.04 ± 0.024

row,Sequence,switch fluorescence ratio
1,CCAAGCACTT,1.45 ± 0.14
2,TTTCCTCTGG,1.95 ± 1.4
3,ATGATTTTGT,1.013 ± 0.01
4,GGGGGGCGCT,0.992 ± 0.018
5,GCTGAATAAT,1.01 ± 0.029
6,ATACGCAGCG,0.998 ± 0.01
7,CGTTCGGAGG,0.991 ± 0.037
8,TATCGCTTGG,1 ± 0.018
9,ACAGGGGCAG,1.02 ± 0.017
10,GATTATGCTG,1.17 ± 0.06
11,GTTTCGGGGT,1.004 ± 0.0055
12,TCTTCTATCT,0.985 ± 0.039
13,GGCAGGGGGG,1.04 ± 0.056
14,AGAGGGCAGG,0.995 ± 0.018
15,AATCCCGGGG,1.19 ± 0.21
16,AGGTTGTGGC,0.992 ± 0.033
17,TAAACTGACG,1.03 ± 0.051
18,AGAGCACAGG,1.09 ± 0.018
19,CGTCAATTTA,1.12 ± 0.12
20,GGCAGTTGTG,0.986 ± 0.024
21,ATTGGAGGGC,0.96 ± 0.038
22,ATGGGACAGG,0.999 ± 0.033
23,AATATGTGGG,0.975 ± 0.024

row,Sequence,switch fluorescence ratio
1,TAACGGCTGC,1 ± 0.051
2,TTTTGGTTGA,0.977 ± 0.025
3,TGAGGGAGGC,1.06 ± 0.06
4,CGGCAGGGGG,1.06 ± 0.1
5,TTTTGGAAGA,0.983 ± 0.039
6,ATACGGGGTA,1.03 ± 0.054
7,TTAAACTGGT,1.04 ± 0.034
8,AGCGATAGTT,1.1 ± 0.038
9,CAAGCGATGG,1.63 ± 0.065
10,TTATTGTTTA,0.99 ± 0.029
11,CCGTCAGGCG,1.039 ± 0.0067
12,CGTAGGGGTT,0.989 ± 0.028
13,GGAACCCGTG,0.997 ± 0.048
14,GTTAAAACTT,1.005 ± 0.0097
15,CCCAGGACGC,1.397 ± 0.0036
16,CTTGGTAGGG,1.03 ± 0.051
17,GATTCGCTAA,1.12 ± 0.13
18,GTAGGCAAAT,1.029 ± 0.003
19,TTTCAATTTT,0.996 ± 0.026
20,GTTATTATTC,0.9922 ± 0.0057
21,GGTGGGATGA,0.965 ± 0.015
22,GTGTTGTTGG,0.986 ± 0.019
23,TCGGGAGTAT,1.04 ± 0.03

row,Sequence,switch fluorescence ratio
1,TCTATAGTTC,1.01 ± 0.034
2,TGAAGCAAAT,1.77 ± 0.075
3,TTGTACGCCA,1.31 ± 0.19
4,AGGGTTTTGA,0.996 ± 0.054
5,GGGAGGCTCG,1 ± 0.0082
6,ATTTCAGTAA,1.05 ± 0.027
7,TCATCAGTGA,0.998 ± 0.028
8,TCTTTTTTGG,1 ± 0.042
9,TTGCTAAATG,1 ± 0.013
10,ATAGGTAGTC,0.996 ± 0.02
11,ATGATGGG,1.01 ± 0.017
12,AGACAGGGCT,1.02 ± 0.042
13,TTGGGCCTGG,0.9806 ± 0.0061
14,AACTCCCTTT,1.067 ± 0.0086
15,TGGTTTTCGT,1.01 ± 0.028
16,TAATTGTTTT,1 ± 0.024
17,AGTGCTTGAG,0.977 ± 0.043
18,TTTTACTT,0.998 ± 0.042
19,CCGCAGGGTT,1.51 ± 0.58
20,ATGCCCGTG,0.985 ± 0.014
21,TTTTTGCTAT,1.06 ± 0.062
22,AGCGGTCTGG,1 ± 0.013
23,AGTGTAAGCC,0.9622 ± 0.0067

row,Sequence,switch fluorescence ratio
1,ACGATAACTT,1.21 ± 0.034
2,ATGTCTTTGA,1.03 ± 0.038
3,GGAATTACAG,1.02 ± 0.046
4,TATAGGGAAA,1.09 ± 0.11
5,GCATGAGGGA,0.993 ± 0.019
6,TCATGTGAAA,1.03 ± 0.021
7,TTGGTTCACC,0.955 ± 0.029
8,TTTCAAGAGT,1.03 ± 0.034
9,CGGTTGGGTC,1.05 ± 0.051
10,TTTCGTGTAG,1 ± 0.032
11,ATAGGGGTGG,1.03 ± 0.018
12,CGAACCGGCG,1.03 ± 0.017
13,AGTAAGATCA,0.992 ± 0.025
14,GGGGGGATGT,0.993 ± 0.027
15,CGAAAAGGAG,1.01 ± 0.015
16,GCGATTAGAG,1 ± 0.02
17,TGAGCATGGG,1 ± 0.029
18,TTTTTAAATT,0.997 ± 0.025
19,TAACGGAGT,1.01 ± 0.015
